± gives the standard deviation of the averaged measurements.
test system: ATP; experiment: switch fluorescence ratio, 500 uM ATP over buffer (Cy3 cluster intensity, sum of 5 cycles each) (fold (ratio)); higher = stronger signal-on switching upon ATP binding; sequences stand for … in TCGTCGGCAGCGTCAGATGTGTATAAGAGACAGTTTTTTTTTTTTTTTTTTTTTTTTT…TC; conditions: aptamer strand: ATP DNA aptamer (quencher-CACCTGGGGGAGTATTGCGGAGGAAGG + anchor), 100 nM annealed; ATP concentration: 500 uM
Method in brief: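 Switching-strand clusters labelled with Cy3 on a modified Illumina MiSeq flow-cell were annealed to 100 nM quencher-labelled ATP aptamer, imaged in selection buffer, and re-imaged after 15 min with 500 uM ATP at 22 °C. This was done over five cycles with NaOH stripping and re-annealing in between. The fluorescence ratio is summed target-cycle over summed buffer-cycle Cy3 intensity per cluster, averaged per switch-domain sequence, excluding clusters outside 100-1000 RFU.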
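Further: ATP exposure 15 min at 22 °C before imaging.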

Row | Sequence | switch fluorescence ratio
1 | GTTTTCGTCG | 1.01 ± 0.054
2 | GTTTTCTGTT | 1.0024 ± 0.00021
3 | GTTTTGGCG | 1.03 ± 0.032
4 | GTTTTGGTCG | 0.9894 ± 0.007
5 | GTTTTGTAAG | 1 ± 0.023
6 | GTTTTGTGCA | 0.9978 ± 0.0052
7 | GTTTTTACTA | 0.998 ± 0.014
8 | GTTTTTCTGG | 0.9738 ± 0.0078
9 | GTTTTTGAAT | 0.992 ± 0.033
10 | GTTTTTGACG | 0.955 ± 0.042
11 | GTTTTTGATG | 0.971 ± 0.021
12 | GTTTTTGGGT | 0.984 ± 0.033
13 | GTTTTTTCGA | 1.024 ± 0.0051
14 | GTTTTTTGCT | 0.9809 ± 0.0051
15 | GTTTTTTGTT | 0.999 ± 0.043
16 | GTTTTTTTCT | 1 ± 0.051
17 | GTTTTTTTGA | 1.0032 ± 0.00018
18 | TAAAAAAGAG | 0.98 ± 0.03
19 | TAAAAAAGGT | 1.04 ± 0.088
20 | TAAAAAAGTG | 1.02 ± 0.02
21 | TAAAAAATGG | 1 ± 0.044
22 | TAAAAAGAAG | 1 ± 0.045
23 | TAAAAAGGGT | 1 ± 0.048
24 | TAAAAATAAA | 0.995 ± 0.0065
25 | TAAAAATGGT | 1.01 ± 0.024

Row | Sequence | switch fluorescence ratio
26 | TAAAAATTTT | 0.999 ± 0.01
27 | TAAAACCGGG | 1 ± 0.025
28 | TAAAACCTGA | 1.17 ± 0.054
29 | TAAAACGCGT | 1.68 ± 0.94
30 | TAAAACTTAC | 1.45 ± 0.1
31 | TAAAAGAGGT | 0.9962 ± 0.0081
32 | TAAAAGCCTG | 1.02 ± 0.052
33 | TAAAAGCTGG | 1.02 ± 0.078
34 | TAAAAGGACG | 1.09 ± 0.024
35 | TAAAAGGGAG | 1.03 ± 0.058
36 | TAAAAGGGGC | 0.985 ± 0.098
37 | TAAAAGGGTG | 0.977 ± 0.033
38 | TAAAAGTAGT | 1.03 ± 0.041
39 | TAAAAGTTAA | 0.981 ± 0.018
40 | TAAAATAGTG | 0.997 ± 0.047
41 | TAAAATCATT | 0.974 ± 0.035
42 | TAAAATGGTT | 1.02 ± 0.032
43 | TAAAATTGAT | 0.9818 ± 0.0038
44 | TAAAATTGTT | 0.991 ± 0.052
45 | TAAACACTAA | 1.01 ± 0.038
46 | TAAACCGGTA | 1.03 ± 0.031
47 | TAAACGAAGC | 1.06 ± 0.039
48 | TAAACGGGGG | 1.04 ± 0.045
49 | TAAACGTCGA | 0.962 ± 0.065
50 | TAAACTGGTT | 0.999 ± 0.029

Row | Sequence | switch fluorescence ratio
51 | TAAACTTTTG | 0.9786 ± 0.0039
52 | TAAAGAAAGG | 1.02 ± 0.013
53 | TAAAGACAGC | 1.006 ± 0.0073
54 | TAAAGAGATG | 1.011 ± 0.0072
55 | TAAAGAGGTA | 1.02 ± 0.013
56 | TAAAGCGGGC | 1.05 ± 0.043
57 | TAAAGCTGAT | 1.01 ± 0.012
58 | TAAAGGCTGG | 1.015 ± 0.0052
59 | TAAAGGGAAG | 1.01 ± 0.021
60 | TAAAGGGCT | 1.001 ± 0.0055
61 | TAAAGGTCGT | 0.97444 ± 0.00071
62 | TAAAGGTTGC | 0.984 ± 0.02
63 | TAAAGTGCGG | 1.03 ± 0.058
64 | TAAAGTTAAA | 1 ± 0.048
65 | TAAAGTTTGC | 0.995 ± 0.017
66 | TAAAGTTTGT | 0.958 ± 0.026
67 | TAAAGTTTTG | 0.995 ± 0.017
68 | TAAATAAATG | 0.976 ± 0.048
69 | TAAATACGGT | 1.03 ± 0.062
70 | TAAATACTCA | 1.16 ± 0.083
71 | TAAATATTAG | 0.9837 ± 0.0031
72 | TAAATATTGG | 1.04 ± 0.034
73 | TAAATATTTT | 1.08 ± 0.14
74 | TAAATCACGC | 1.23 ± 0.24
75 | TAAATCCAGG | 1.24 ± 0.028

Row | Sequence | switch fluorescence ratio
76 | TAAATCCTGG | 0.961 ± 0.023
77 | TAAATCGGGG | 0.995 ± 0.049
78 | TAAATGAGGT | 0.998 ± 0.015
79 | TAAATGATAT | 0.984 ± 0.02
80 | TAAATGGGCT | 1.04 ± 0.025
81 | TAAATGGTTG | 0.9863 ± 0.0094
82 | TAAATGTATG | 1.01 ± 0.041
83 | TAAATGTCTT | 1.025 ± 0.0077
84 | TAAATGTGGG | 1 ± 0.069
85 | TAAATGTTGT | 0.9869 ± 0.0055
86 | TAAATTCCGA | 1.07 ± 0.038
87 | TAAATTGCG | 0.9991 ± 0.0013
88 | TAAATTTTCA | 1.03 ± 0.031
89 | TAACAATTTT | 1.01 ± 0.019
90 | TAACACGGTA | 1.16 ± 0.0035
91 | TAACAGCTGT | 1.04 ± 0.041
92 | TAACAGTAAC | 1.08 ± 0.05
93 | TAACAGTGAG | 0.964 ± 0.021
94 | TAACATACAT | 1.18 ± 0.11
95 | TAACATTTAT | 0.979 ± 0.027
96 | TAACATTTTT | 1 ± 0.022
97 | TAACCGGGGG | 1.67 ± 1.2
98 | TAACCTGCCC | 2.26 ± 0.12
99 | TAACGCGGAC | 2.5233 ± 3.9e-05
100 | TAACGGGGGG | 0.999 ± 0.045

Row | Sequence | switch fluorescence ratio
101 | TAACGGGTTT | 1.02 ± 0.015
102 | TAACGGTCAG | 1.025 ± 0.0095
103 | TAACGGTGTA | 1.02 ± 0.026
104 | TAACGGTTAT | 1.01 ± 0.024
105 | TAACGGTTG | 0.98 ± 0.017
106 | TAACTAAACT | 1.12 ± 0.08
107 | TAACTGACGG | 1.268 ± 0.012
108 | TAAGAAAGGT | 1 ± 0.0053
109 | TAAGAAGGAA | 0.9918 ± 0.0091
110 | TAAGACAGGG | 1.02 ± 0.028
111 | TAAGACCAGT | 0.981 ± 0.034
112 | TAAGAGGCCT | 1.02 ± 0.031
113 | TAAGAGTTGG | 0.999 ± 0.018
114 | TAAGATATTT | 0.9715 ± 0.0094
115 | TAAGATTCGT | 1 ± 0.031
116 | TAAGATTTTC | 0.973 ± 0.046
117 | TAAGCAATGT | 2.69 ± 1.1
118 | TAAGCAGTGG | 1.02 ± 0.022
119 | TAAGCATTTC | 1.34 ± 0.11
120 | TAAGCCTGTT | 1 ± 0.021
121 | TAAGCGGCGC | 0.989 ± 0.084
122 | TAAGCGGGAC | 2.88 ± 2
123 | TAAGCGGGGC | 1.0163 ± 0.00063
124 | TAAGCTCTCG | 0.9915 ± 0.0027
125 | TAAGCTTGTA | 1.01 ± 0.022

Row | Sequence | switch fluorescence ratio
126 | TAAGGAAAAT | 0.998 ± 0.02
127 | TAAGGACATT | 1.03 ± 0.015
128 | TAAGGACGGA | 1.01 ± 0.071
129 | TAAGGAGACA | 1.01 ± 0.045
130 | TAAGGAGGAG | 1 ± 0.013
131 | TAAGGAGGTC | 0.99 ± 0.031
132 | TAAGGAGTAG | 0.991 ± 0.027
133 | TAAGGATGGG | 0.961 ± 0.032
134 | TAAGGATGTA | 1 ± 0.033
135 | TAAGGCTAGT | 0.969 ± 0.01
136 | TAAGGCTTCG | 0.96 ± 0.039
137 | TAAGGGAAGC | 1.04 ± 0.04
138 | TAAGGGAGGT | 0.996 ± 0.044
139 | TAAGGGAGTA | 1.004 ± 0.0065
140 | TAAGGGCAAG | 1.01 ± 0.013
141 | TAAGGGGAAC | 1.01 ± 0.03
142 | TAAGGGGCAT | 1.04 ± 0.093
143 | TAAGGGGCTT | 0.992 ± 0.021
144 | TAAGGGGGCA | 1.01 ± 0.052
145 | TAAGGGGGTT | 1.01 ± 0.036
146 | TAAGGGGTCG | 1.03 ± 0.046
147 | TAAGGGGTGC | 1.06 ± 0.014
148 | TAAGGGTATG | 0.965 ± 0.066
149 | TAAGGGTGCT | 1.039 ± 0.0037
150 | TAAGGGTGGG | 1 ± 0.043

Row | Sequence | switch fluorescence ratio
151 | TAAGGGTGGT | 1.01 ± 0.027
152 | TAAGGGTTAA | 0.994 ± 0.012
153 | TAAGGGTTG | 0.985 ± 0.058
154 | TAAGGGTTTG | 0.977 ± 0.036
155 | TAAGGTAAGT | 0.987 ± 0.021
156 | TAAGGTATGT | 1.03 ± 0.026
157 | TAAGGTGCTC | 1.1 ± 0.01
158 | TAAGGTGTTT | 1.08 ± 0.076
159 | TAAGGTTCTT | 1.01 ± 0.011
160 | TAAGGTTGCA | 0.983 ± 0.032
161 | TAAGTAATTT | 1.01 ± 0.042
162 | TAAGTACTTT | 0.977 ± 0.025
163 | TAAGTAGTAT | 0.987 ± 0.017
164 | TAAGTATTG | 1.01 ± 0.017
165 | TAAGTCCTTT | 0.9828 ± 0.0041
166 | TAAGTGCGGG | 0.974 ± 0.0034
167 | TAAGTGGGAA | 1.01 ± 0.035
168 | TAAGTGGTGC | 1.05 ± 0.031
169 | TAAGTGGTT | 0.994 ± 0.011
170 | TAAGTTAGAG | 0.97 ± 0.024
171 | TAAGTTATGT | 1.01 ± 0.015
172 | TAAGTTGAGC | 0.965 ± 0.057
173 | TAAGTTGGGG | 0.995 ± 0.02
174 | TAAGTTGGTT | 1.06 ± 0.014
175 | TAAGTTGTAT | 1 ± 0.035

Row | Sequence | switch fluorescence ratio
176 | TAAGTTTGCC | 1.01 ± 0.04
177 | TAAGTTTGGG | 0.968 ± 0.04
178 | TAAGTTTGGT | 0.985 ± 0.021
179 | TAAGTTTTGG | 0.974 ± 0.017
180 | TAATAAAGAT | 0.969 ± 0.054
181 | TAATAACTCT | 1 ± 0.061
182 | TAATAATGGA | 1.01 ± 0.035
183 | TAATAATTCG | 1.01 ± 0.012
184 | TAATACCGTA | 1.06 ± 0.084
185 | TAATACTGTT | 0.888 ± 0.031
186 | TAATACTTTG | 1.04 ± 0.024
187 | TAATAGAGCT | 0.995 ± 0.03
188 | TAATCAGAGC | 1.02 ± 0.039
189 | TAATCAGGGG | 1.07 ± 0.16
190 | TAATCCCGGG | 1.3 ± 0.4
191 | TAATCCTAGT | 0.997 ± 0.036
192 | TAATCGCATA | 2.05 ± 1.2
193 | TAATCGGCCT | 1.04 ± 0.05
194 | TAATCGGGGA | 0.984 ± 0.029
195 | TAATCGTGTT | 0.983 ± 0.014
196 | TAATCTGCTG | 1.01 ± 0.02
197 | TAATCTGGTA | 0.986 ± 0.017
198 | TAATCTTAGA | 0.99489 ± 5.2e-05
199 | TAATGACCTT | 1.16 ± 0.18
200 | TAATGCAATA | 1.67 ± 0.054

From the supplement of paper PMC10126150
